Laboratory results as given in the supplement of paper PMC10567573.

B1: NECAB1 (parent)
chain: NLDTEELCEYFSQHLGEYENVLAA

Variants of: B1
Test: protein stability index of a GFP-peptide fusion (GPS, HEK-293T) (PSI 1-6); higher = more stable
Settings: c terminus: a fixed tail appended
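Note: lentivirally expressed fusions sorted by FACS into six bins by GFP to DsRed ratio, PSI derived from sequencing read proportions per bin multiplied by bin number.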

| Variant | protein stability index |
| --- | --- |
| NLDTWELCEYFSQHLGEYENVLAA [E5W] | 1.98 |
| NLDTKELCEYFSQHLGEYENVLAA [E5K] | 1.94 |
| NLDTQELCEYFSQHLGEYENVLAA [E5Q] | 1.97 |
| NLDTTELCEYFSQHLGEYENVLAA [E5T] | 2.4 |
| NLDTLELCEYFSQHLGEYENVLAA [E5L] | 1.89 |
| NLDTEELCTYFSQHLGEYENVLAA [E9T] | 2.3 |
| NLDTEELCAYFSQHLGEYENVLAA [E9A] | 1.99 |
| NLDTEELCRYFSQHLGEYENVLAA [E9R] | 1.97 |
| NLDTEELCHYFSQHLGEYENVLAA [E9H] | 2.38 |
| NLDTEELCDYFSQHLGEYENVLAA [E9D] | 3.15 |
| NLDTEELCLYFSQHLGEYENVLAA [E9L] | 1.91 |
| NLDTEELCSYFSQHLGEYENVLAA [E9S] | 2.04 |
| NLDTEELCYYFSQHLGEYENVLAA [E9Y] | 1.76 |
| NLDTEELCQYFSQHLGEYENVLAA [E9Q] | 2.05 |
| NLDTEELCEGFSQHLGEYENVLAA [Y10G] | 4.44 |
| NLDTEELCEFFSQHLGEYENVLAA [Y10F] | 3.17 |
| NLDTEELCEMFSQHLGEYENVLAA [Y10M] | 4.18 |
| NLDTEELCEHFSQHLGEYENVLAA [Y10H] | 4.12 |
| NLDTEELCERFSQHLGEYENVLAA [Y10R] | 4.08 |
| NLDTEELCEKFSQHLGEYENVLAA [Y10K] | 4.33 |
| NLDTEELCEIFSQHLGEYENVLAA [Y10I] | 3.97 |
| NLDTEELCETFSQHLGEYENVLAA [Y10T] | 4.59 |
| NLDTECLCEYFSQHLGEYENVLAA [E6C] | 2.68 |
| NLDTEWLCEYFSQHLGEYENVLAA [E6W] | 2.23 |

| Variant | protein stability index |
| --- | --- |
| NLDTERLCEYFSQHLGEYENVLAA [E6R] | 1.8 |
| NLDTEVLCEYFSQHLGEYENVLAA [E6V] | 2.38 |
| NLDTENLCEYFSQHLGEYENVLAA [E6N] | 2.42 |
| NLDTEALCEYFSQHLGEYENVLAA [E6A] | 2.27 |
| NLDTEDLCEYFSQHLGEYENVLAA [E6D] | 2.53 |
| NLDTELLCEYFSQHLGEYENVLAA [E6L] | 1.74 |
| NLDTETLCEYFSQHLGEYENVLAA [E6T] | 2.34 |
| NLDTEGLCEYFSQHLGEYENVLAA [E6G] | 1.81 |
| NLDTEELCEYFSQHLGEYENYLAA [V21Y] | 1.98 |
| NLDTEELCEYFSQHLGEYENFLAA [V21F] | 2.08 |
| NLDTEELCEYFSQHLGEYENALAA [V21A] | 2.9 |
| NLDTEELCEYFSQHLGEYENKLAA [V21K] | 2.07 |
| NLDTEELCEYFSQHLGEYENMLAA [V21M] | 1.88 |
| NLDTEELCEYFSQHLGEYENWLAA [V21W] | 1.68 |
| NLDTEELCEYFSQHLGEYENTLAA [V21T] | 3.43 |
| NLDTEELCEYFSQHLGEYENCLAA [V21C] | 3.01 |
| NLDTEELCEYFTQHLGEYENVLAA [S12T] | 2.91 |
| NLDTEELCEYFAQHLGEYENVLAA [S12A] | 2.59 |
| NLDTEELCEYFQQHLGEYENVLAA [S12Q] | 2.55 |
| NLDTEELCEYFVQHLGEYENVLAA [S12V] | 2.28 |
| NLDTEELCEYFWQHLGEYENVLAA [S12W] | 3.15 |
| NLDTEELCEYFEQHLGEYENVLAA [S12E] | 3.83 |
| NLDTEELCEYFHQHLGEYENVLAA [S12H] | 2.88 |
| NLDTEELCEYFGQHLGEYENVLAA [S12G] | 4 |

| Variant | protein stability index |
| --- | --- |
| NLDTEELCEYFPQHLGEYENVLAA [S12P] | 4.53 |
| NLDTEELCEYFSQHLGEYENVLIA [A23I] | 2.02 |
| NLDTEELCEYFSQHLGEYENVLPA [A23P] | 3.65 |
| NLDTEELCEYFSQHLGEYENVLLA [A23L] | 1.75 |
| NLDTEELCEYFSQHLGEYENVLGA [A23G] | 2.93 |
| NLDTEELCEYFSQHLGEYENVLSA [A23S] | 2.23 |
| NLDTEELCEYFSQHLGEYENVLTA [A23T] | 3.06 |
| NLDTEELCEYFSQHLGEYENVLNA [A23N] | 3.98 |
| NLDTEELCEYFSQHLGEYENVLHA [A23H] | 2.83 |
| NLDTEELCEYFSQHLGEYENVLWA [A23W] | 1.91 |
| NLDTEELCEYFSQHLGEYENVLMA [A23M] | 2.18 |
| NLDTEEWCEYFSQHLGEYENVLAA [L7W] | 3.85 |
| NLDTEEMCEYFSQHLGEYENVLAA [L7M] | 4.26 |
| NLDTEEVCEYFSQHLGEYENVLAA [L7V] | 4.59 |
| NLDTEEFCEYFSQHLGEYENVLAA [L7F] | 3.55 |
| NLDTEEECEYFSQHLGEYENVLAA [L7E] | 4.77 |
| NLDTEETCEYFSQHLGEYENVLAA [L7T] | 4.42 |
| NLDTEEQCEYFSQHLGEYENVLAA [L7Q] | 4.13 |
| NLDTEELCEYFSQPLGEYENVLAA [H14P] | 4.44 |
| NLDTEELCEYFSQVLGEYENVLAA [H14V] | 3.01 |
| NLDTEELCEYFSQALGEYENVLAA [H14A] | 3.31 |
| NLDTEELCEYFSQQLGEYENVLAA [H14Q] | 3.35 |
| NLDTEELCEYFSQNLGEYENVLAA [H14N] | 2.55 |
| NQDTEELCEYFSQHLGEYENVLAA [L2Q] | 4.12 |

| Variant | protein stability index |
| --- | --- |
| NTDTEELCEYFSQHLGEYENVLAA [L2T] | 3.52 |
| NKDTEELCEYFSQHLGEYENVLAA [L2K] | 3.9 |
| NEDTEELCEYFSQHLGEYENVLAA [L2E] | 4.97 |
| NGDTEELCEYFSQHLGEYENVLAA [L2G] | 3.85 |
| NADTEELCEYFSQHLGEYENVLAA [L2A] | 2.99 |
| NLDTEELCEYFSQHLGEKENVLAA [Y18K] | 4.71 |
| NLDTEELCEYFSQHLGEPENVLAA [Y18P] | 4.28 |
| NLDTEELCEYFSQHLGEAENVLAA [Y18A] | 4.2 |
| NLDTEELCEYFSQHLGEVENVLAA [Y18V] | 3.14 |
| NLDTEELCEYFSQHLGEQENVLAA [Y18Q] | 4.61 |
| NLDTEELCEYFSQHLGEMENVLAA [Y18M] | 3.6 |
| NLDTEELCEYFSQHLGELENVLAA [Y18L] | 2.3 |
| NLDTEELCEYFSQHLGEFENVLAA [Y18F] | 2.31 |
| NLDTEELCEYFSQHLGENENVLAA [Y18N] | 4.27 |
| NLDTEELCEYFSQHLGECENVLAA [Y18C] | 4.03 |
| NLDTEELCEYFSQHLGFYENVLAA [E17F] | 2.33 |
| NLDTEELCEYFSQHLGWYENVLAA [E17W] | 2.11 |
| NLDTEELCEYFSQHLGMYENVLAA [E17M] | 2.17 |
| NLDTEELCEYFSQHLGKYENVLAA [E17K] | 1.34 |
| NLDTEELCEYFSQHLGAYENVLAA [E17A] | 2.12 |
| NLDTEELCEYFSQHLGYYENVLAA [E17Y] | 2.65 |
| NLDTEELCEYFSQHLGHYENVLAA [E17H] | 1.54 |
